Experimental data: patent publication CN113956352A (FUJIAN MEDICAL UNIV UNION HOSPITAL, dated 2022)
Where a chain is given by its changes, count along the chain named.

B1: R157 (antibody, V domains shown)
VH: QVQLVQSGAEVKKPGSSVKVSCKASGGTFSSYAINWVRQAPGQGLEWMGGIIPILGIANYAQKFQGRVTITADKSTSTAYMELSSLRSEDTAVYYCAREQGYSGSGANYYFDYWGQGTLVTVSS
VL: QSVLTQPPSVSGAPGQRVTVSCTGSSSNIGAGYDVHWYQQLPGTAPKLLIYGNTNRPSGVPDRFSGSKSGTSASLAITGLQAEDEADYYCQSYDSSLSDVVFGGGTQLTVL
B2: R14 (antibody, V domains shown)
VH: B1 VH with A33T, N35S, G50R, Q100I, G104S, A107S, F111M, Y113V, Q116K, L119T
VL: B1 VL with V20I, T54S, D99G, Q107K
B3: R29 (antibody, V domains shown)
VH: EVQLLESGGGLVQPGRSLRLSCAASGFTFDDYGIHWVRQAQGKGLEWVSGISWNSGTIGYADSVKGRFTISRDNAKNSLYLQMNSLRAEDTALYYCAKDRGGKLRWYEREEYYFDYWGQGTLVTVSS
VL: SYVLTQPPSVSVAPGQTAKITCGGNDIGRKSVYWYQQKPGQAPILVIYYSSDRPSGIPDRFSGSNSGNTATLTIGRVEAGDEADYYCQVWDSTSDHVIFGGGTKLTVL
B4: R44 (antibody, V domains shown)
VH: QVQLVQSGGGLVQPGGSLRLSCAASEITVSSNYMSWVRQAPGKGLEWVSVLYSGGSTDYADSVKGRFTISRDNSKNTLYLQMNSLRAEDTAVYYCAREVYGMDVWGQGTTVTVSS
VL: DIVLTQTPSSLSASVGDRVTITCRASQGISSYLAWYQQKPGKAPKLLIYAASTLQSGVPSRFSGSGSGTDFTLTISSLQPEDFATYYCQELSTYPVTFGQGTKVEIK

How the values were obtained:
[1] = biological target: SARS-CoV-2 RBD蛋白 (ELISA coating antigen) (SARS-CoV-2, UniProt P0DTC2 319-541); assay: ELISA, plate coated with SARS-CoV-2 RBD, antibody 1 μg/mL, goat anti-human IgG-HRP
[2] = biological target: SARS-CoV-2 S-RBD蛋白 (Acrobiosystems, cat.# SPD-C52H3) (SARS-CoV-2, UniProt P0DTC2 319-537); assay: SPR (Biacore 8K), antibody captured on Protein A chip, S-RBD 50-0.78125 nM, 1:1 Langmuir fit
SARS-CoV-2 S蛋白 (刺突糖蛋白) = SARS-CoV-2 S蛋白 (刺突糖蛋白) (SARS-CoV-2, UniProt P0DTC2 14-1273); assay: cell-based or functional assay

Row | Binder | ELISA值 (OD450) [1] [OD450] | Kd [2] [nM] | 假病毒的抑制率IC50 (Luciferase RLU, Spike假病毒, 293T-ACE2细胞) (SARS-CoV-2 S蛋白 (刺突糖蛋白)) [µg/mL]
1 | B1 | 1.14 | – | –
2 | B2 | 1.01 | – | –
3 | B3 | 1.06 | – | –
4 | B4 | 1.17 | 0.205 | 1.6
